Measurements as given in US20160264649A1.

Tests used:
Assay in all cases: cell-based or functional assay
[1] = target: HIV-1 MGRM-C-017 Env on pseudovirus (HIV-1)
[2] = target: HIV-1 LAVIC_18 Env on pseudovirus (HIV-1)
[3] = target: aMLV envelope (negative control pseudovirus)
[4] = target: HIV-1 PVO.4 (Acute) Env on pseudovirus (HIV-1)
[5] = target: HIV-1 MGRM-AG-001 Env (HIV-1)
[6] = target: HIV-1 MGRM-C-015 Env on pseudovirus (HIV-1)
[7] = target: HIV-1 MGRM-F1-014 Env (HIV-1)
[8] = target: HIV-1 MGRM-C-007 Env on pseudovirus (HIV-1)
[9] = target: HIV-1 LAVI_C3 Env on pseudovirus (HIV-1)
[10] = target: HIV-1 NL43 Env on pseudovirus (HIV-1)
[11] = target: HIV-1 LAVI_C22 Env on pseudovirus (HIV-1)
[12] = target: HIV-1 92BR020 Env on pseudovirus (HIV-1)
[13] = target: HIV-1 MGRM-F1-023 Env (HIV-1)
[14] = target: HIV-1 MGRM-AG-008 Env (HIV-1)
[15] = target: HIV-1 QH0692.42 (Acute) Env on pseudovirus (HIV-1)
[16] = target: HIV-1 MGRM-G-001 Env (HIV-1)
[17] = target: HIV-1 MGRM-F1-012 Env (HIV-1)
[18] = target: HIV-1 MGRM-D-026 Env (HIV-1)
[19] = target: HIV-1 MGRM-G-011 Env (HIV-1)
[20] = target: HIV-1 MGRM-Chronic-B-002 Env on pseudovirus (HIV-1)
[21] = target: HIV-1 MGRM-D-029 Env (HIV-1)
[22] = target: HIV-1 MGRM-D-028 Env (HIV-1)
[23] = target: HIV-1 APV_13 Env on pseudovirus (HIV-1)
[24] = target: HIV-1 94UG114 Env (HIV-1)
[25] = target: HIV-1 6535.3 (Acute) Env on pseudovirus (HIV-1)
HIV-1 JRCSF Env (HIV-1) = HIV-1 JRCSF Env (HIV-1) (UniProt P20871)
[26] = target: HIV-1 MGRM-AE-004 Env (HIV-1)
[27] = target: HIV-1 MGRM-Chronic-B-020 Env on pseudovirus (HIV-1)
[28] = target: HIV-1 MGRM-AE-005 Env (HIV-1)
[29] = target: HIV-1 MGRM-AG-003 Env (HIV-1)
[30] = target: HIV-1 MGRM-Chronic-B-017 Env on pseudovirus (HIV-1)
[31] = target: HIV-1 SC422661.8 (Acute) Env on pseudovirus (HIV-1)
[32] = target: HIV-1 MGRM-Chronic-B-010 Env on pseudovirus (HIV-1)
[33] = target: HIV-1 MGRM-D-021 Env (HIV-1)
[34] = target: HIV-1 MGRM-D-018 Env (HIV-1)
[35] = target: HIV-1 MGRM-C-024 Env on pseudovirus (HIV-1)
[36] = target: HIV-1 MGRM-AE-003 Env (HIV-1)
[37] = target: HIV-1 TRO.11 (Acute) Env on pseudovirus (HIV-1)
[38] = target: HIV-1 IAVI-C3 Env (HIV-1)
[39] = target: HIV-1 MGRM-D-020 Env (HIV-1)
[40] = target: HIV-1 98IN022 Env on pseudovirus (HIV-1)
[41] = target: HIV-1 MGRM-D-014 Env (HIV-1)
[42] = target: HIV-1 CAAN.A2 (Acute) Env on pseudovirus (HIV-1)
[43] = target: HIV-1 MGRM-Chronic-B-018 Env on pseudovirus (HIV-1)
[44] = target: HIV-1 MGRM-D-003 Env (HIV-1)
[45] = target: HIV-1 MGRM-C-006 Env on pseudovirus (HIV-1)
[46] = target: HIV-1 MGRM-D-013 Env (HIV-1)
[47] = target: HIV-1 MGRM-D-019 Env (HIV-1)
[48] = target: HIV-1 92UG046 Env (HIV-1)
[49] = target: HIV-1 MGRM-D-022 Env (HIV-1)
[50] = target: HIV-1 TRJ0.58 (Acute) Env on pseudovirus (HIV-1)
[51] = target: HIV-1 MGRM-D-001 Env (HIV-1)

b12 (antibody)
IC50 [1]: > 50 µg/mL
IC50 [2]: > 50 µg/mL
IC50 (pseudovirus neutralization) [3]: > 50 µg/mL
IC50 [4]: > 50 µg/mL
IC50 (µg/ml), pseudovirus neutralization [5]: 11.9 µg/mL
IC50 [6]: 13.3 µg/mL
IC50 (pseudovirus neutralization) [7]: > 50 µg/mL
IC50 [8]: > 50 µg/mL
IC50 [9]: 0.94 µg/mL
IC50 [10]: 0.17 µg/mL
IC50 [11]: 7.64 µg/mL
IC50 [12]: > 50 µg/mL
IC50 (pseudovirus neutralization) [13]: > 50 µg/mL
IC50 (µg/ml), pseudovirus neutralization [14]: > 50 µg/mL
IC50 [15]: 0.73 µg/mL
IC50 (µg/ml), pseudovirus neutralization [16]: > 50 µg/mL
IC50 (pseudovirus neutralization) [17]: > 50 µg/mL
IC50 (µg/ml), pseudovirus neutralization [18]: 1.55 µg/mL
IC50 (µg/ml), pseudovirus neutralization [19]: > 50 µg/mL
IC50 [20]: 0.86 µg/mL
IC50 (µg/ml), pseudovirus neutralization [21]: > 50 µg/mL
IC50 (µg/ml), pseudovirus neutralization [22]: 0.78 µg/mL
IC50 [23]: > 50 µg/mL
IC50 (µg/ml), pseudovirus neutralization [24]: > 50 µg/mL
IC50 [25]: 1.93 µg/mL
neutralization IC50 (HIV-1 JRCSF Env (HIV-1)): 0.16 µg/mL
neutralization IC90 (HIV-1 JRCSF Env (HIV-1)): 1.17 µg/mL
IC50 (µg/ml), pseudovirus neutralization [26]: > 50 µg/mL
IC50 [27]: 6.16 µg/mL
IC50 (µg/ml), pseudovirus neutralization [28]: 0.63 µg/mL
IC50 (µg/ml), pseudovirus neutralization [29]: > 50 µg/mL
IC50 [30]: 2.59 µg/mL
IC50 [31]: 6.11 µg/mL
IC50 [32]: > 50 µg/mL
IC50 (µg/ml), pseudovirus neutralization [33]: 5.23 µg/mL
IC50 (µg/ml), pseudovirus neutralization [34]: 1.39 µg/mL
IC50 [35]: > 50 µg/mL
IC50 (µg/ml), pseudovirus neutralization [36]: > 50 µg/mL
IC50 [37]: > 50 µg/mL
neutralization IC50 [38]: 5 µg/mL
IC50 (µg/ml), pseudovirus neutralization [39]: > 50 µg/mL
IC50 [40]: 0.42 µg/mL
IC50 (µg/ml), pseudovirus neutralization [41]: > 50 µg/mL
IC50 [42]: > 50 µg/mL
IC50 [43]: 0.66 µg/mL
IC50 (µg/ml), pseudovirus neutralization [44]: > 50 µg/mL
IC50 [45]: > 50 µg/mL
IC50 (µg/ml), pseudovirus neutralization [46]: > 50 µg/mL
IC50 (µg/ml), pseudovirus neutralization [47]: > 50 µg/mL
IC50 (µg/ml), pseudovirus neutralization [48]: 0.07 µg/mL
IC50 (µg/ml), pseudovirus neutralization [49]: 17.6 µg/mL
IC50 [50]: > 50 µg/mL
IC50 (µg/ml), pseudovirus neutralization [51]: > 50 µg/mL

1496_C09 (PG9) (TCN-109) (antibody)
IC50 [1]: 1.52 µg/mL
IC50 [2]: 0.1 µg/mL
IC50 [4]: 4.01 µg/mL
IC50 (µg/ml), pseudovirus neutralization [5]: 8.83 µg/mL
IC50 [6]: 0.5 µg/mL
IC50 (pseudovirus neutralization) [7]: 0.01 µg/mL
IC50 [8]: 0.09 µg/mL
IC50 [9]: 1.45 µg/mL
IC50 [10]: 0.32 µg/mL
IC50 (µg/ml), pseudovirus neutralization [16]: 0.16 µg/mL
IC50 (pseudovirus neutralization) [17]: 0.01 µg/mL
IC50 (µg/ml), pseudovirus neutralization [18]: 17.5 µg/mL
IC50 (µg/ml), pseudovirus neutralization [19]: 0.19 µg/mL
IC50 [20]: 1.41 µg/mL
IC50 (µg/ml), pseudovirus neutralization [22]: 4.39 µg/mL
IC50 [25]: 0.22 µg/mL
neutralization IC50 (HIV-1 JRCSF Env (HIV-1)): < 0.0025 µg/mL
neutralization IC90 (HIV-1 JRCSF Env (HIV-1)): < 0.0025 µg/mL
IC50 (µg/ml), pseudovirus neutralization [26]: 0.01 µg/mL
IC50 (µg/ml), pseudovirus neutralization [28]: 0.16 µg/mL
IC50 (µg/ml), pseudovirus neutralization [29]: 9.71 µg/mL
IC50 [30]: 0.32 µg/mL
IC50 [31]: 0.79 µg/mL
IC50 [32]: 0.004 µg/mL
IC50 [35]: 0.22 µg/mL
IC50 [37]: 5.43 µg/mL
neutralization IC50 [38]: 12.9 µg/mL
IC50 (µg/ml), pseudovirus neutralization [39]: 2.03 µg/mL
IC50 [40]: 0.006 µg/mL
IC50 [42]: 5.67 µg/mL
IC50 [43]: 0.16 µg/mL
IC50 [45]: 0.23 µg/mL
IC50 (µg/ml), pseudovirus neutralization [46]: 0.06 µg/mL
IC50 (µg/ml), pseudovirus neutralization [47]: 0.03 µg/mL
IC50 (µg/ml), pseudovirus neutralization [48]: 0.64 µg/mL
IC50 [50]: 0.43 µg/mL
